This note sets out measurements from the RNAGym collection of RNA variant scans (doi:10.7554/elife.80360).

Sequences and labels used below:
B1: HDV Ribozyme (parent)
chain: GGCCGGCAUGGUCCCAGCCUCCUCGCUGGCGCCGGCUGGGCAACAUUCCGAGGGGACCGUCCCCUCGGUAAUGGCGAAUGGGACCCA

The variants in this data set derive from B1. Briefly: self-cleavage, relative activity (ratio to wild type); higher = more cleavage; co-transcriptional.
Take C32A G39A: the self-cleavage was found to be 0.0563.

As to U37G A42C, the self-cleavage was found to be 0.308.

Turning to U27A G80A, the self-cleavage was 0.499.

Take C57A U60A: the self-cleavage came to 0.898.

Regarding U20C U47A, the self-cleavage stood at 0.133.

On to C15U C61G, for which the self-cleavage was 0.898.

Turning to U72C, the self-cleavage is 0.589.

For the variant C48G C57U, the self-cleavage stood at 1.04.

For the variant A43C G81A, the self-cleavage was determined as 0.248.

Turning to C48G A56C, the self-cleavage amounted to 0.875.

As to C3G G74C, the self-cleavage stood at 0.0779.

Take U9G G82C: the self-cleavage was determined as 0.646.

In the case of U69A A71U, the self-cleavage amounted to 1.27.

In the case of U12A G54U, the self-cleavage was found to be 0.415.

G55A A83G: the self-cleavage is 0.919.

On to C32U U37G, for which the self-cleavage stood at 0.166.

Take A71U G80U: the self-cleavage was 0.21.

For G38C C57A, the self-cleavage is 0.102.

For G1U C36A, the self-cleavage amounted to 0.158.

A8G G10A: the self-cleavage turned out to be 0.369.

Consider C49U C63G, for which the self-cleavage amounted to 0.396.

As to A51U U72A, the self-cleavage came out at 0.628.

Consider C3G A83G, for which the self-cleavage is 0.289.

With C4U C75U, the self-cleavage stood at 0.155.

Turning to A71G C86A, the self-cleavage amounted to 1.19.

On to G52U U65G, for which the self-cleavage amounted to 0.767.

As to G50C A78U, the self-cleavage is 0.131.

Turning to G40C C57G, the self-cleavage was found to be 0.36.

In the case of G28A A42C, the self-cleavage was found to be 0.128.

With G29U C61A, the self-cleavage was 0.089.

With G5A C18G, the self-cleavage was 0.

As for A16C G53C, the self-cleavage was found to be 0.475.

Regarding G68U, the self-cleavage came to 0.932.

As to U12C G80C, the self-cleavage amounted to 0.104.

Consider G5U A43C, for which the self-cleavage is 0.

Consider C41A C86G, for which the self-cleavage came to 0.739.

U9G C86G: the self-cleavage was 1.33.

In the case of C7A U23G, the self-cleavage came to 0.19.

Regarding C41G A70U, the self-cleavage was determined as 0.746.

C21A G31A: the self-cleavage was 0.0482.

Regarding G74A A78U, the self-cleavage turned out to be 0.173.

C13G G17A: the self-cleavage stood at 0.0652.

In the case of G81U C84A, the self-cleavage came out at 0.378.

Regarding G52A G82A, the self-cleavage came out at 0.439.

With C4U G29A, the self-cleavage is 0.

With A56U C85U, the self-cleavage is 1.12.

Consider A56G C86A, for which the self-cleavage amounted to 0.718.

Take G39U C48G: the self-cleavage was 0.862.

For the variant C33A A43C, the self-cleavage was 0.0852.

As to G53A G68U, the self-cleavage amounted to 0.807.

Take C13G C49U: the self-cleavage was 0.

In the case of C49G G55A, the self-cleavage is 0.976.

G34C G73U: the self-cleavage came out at 0.0627.

As to U72A A78C, the self-cleavage amounted to 0.125.

For G5U G82U, the self-cleavage stood at 0.128.

Turning to G17A U46A, the self-cleavage was 0.308.

In the case of G29U G81U, the self-cleavage came out at 0.0554.

Regarding G29U U69A, the self-cleavage amounted to 0.0875.

For the variant A8U C21A, the self-cleavage turned out to be 0.

On to C15G G40U, for which the self-cleavage stood at 0.354.

As for A16G C86U, the self-cleavage was determined as 1.2.

On to C14G G35A, for which the self-cleavage came to 0.199.

As to C48U G74C, the self-cleavage is 0.253.

Take G29U G35U: the self-cleavage was determined as 0.058.

For C63G G73U, the self-cleavage turned out to be 0.397.

With U9A G76U, the self-cleavage is 1.02.

In the case of A16G C22A, the self-cleavage is 0.199.

Regarding U9C C44G, the self-cleavage came out at 0.63.

On to C30G A45G, for which the self-cleavage was 0.0563.

Turning to C19U A77C, the self-cleavage came out at 0.0811.

Regarding G2A G80C, the self-cleavage came out at 0.0378.

On to G40A C86G, for which the self-cleavage is 1.01.

In the case of G31A G74C, the self-cleavage amounted to 0.182.

Consider U12A G74U, for which the self-cleavage is 0.101.

Regarding G10U U47G, the self-cleavage stood at 0.63.

Turning to G53A C84A, the self-cleavage stood at 0.888.

On to U23G A78U, for which the self-cleavage was found to be 0.0875.

On to G1U G34U, for which the self-cleavage was determined as 0.215.

G1U G34A: the self-cleavage came to 0.298.

As for C63G A83U, the self-cleavage was found to be 0.271.

For C13U C30A, the self-cleavage was 0.102.

Regarding G31A G68C, the self-cleavage came to 0.518.

As for C13A U65G, the self-cleavage amounted to 0.208.

As for G1U C15U, the self-cleavage was found to be 0.269.

With A56U C61A, the self-cleavage is 0.943.

Turning to C18U U65G, the self-cleavage stood at 0.554.

Consider C24U A83C, for which the self-cleavage was 0.219.

For the variant C21A G73A, the self-cleavage was 0.161.

Turning to G2A G35C, the self-cleavage came out at 0.0326.

G38U U65G: the self-cleavage amounted to 0.233.

C13A C26A: the self-cleavage turned out to be 0.623.

As to C33G A78G, the self-cleavage is 0.

Consider G1C C63A, for which the self-cleavage stood at 0.201.

Turning to C22G U79G, the self-cleavage worked out at 0.0665.

For U20G G38U, the self-cleavage came out at 0.0573.

In the case of C49U G82C, the self-cleavage was found to be 0.264.

In the case of C15U G73A, the self-cleavage was determined as 0.302.

For the variant C61U A83C, the self-cleavage was found to be 0.378.

Consider C48G G82C, for which the self-cleavage is 0.111.

Turning to G40U A87G, the self-cleavage turned out to be 0.578.

Take U47G U72G: the self-cleavage came out at 0.623.

As for G6A G68A, the self-cleavage was determined as 0.704.

For the variant U9A C86A, the self-cleavage is 0.554.

A43C C63A: the self-cleavage stood at 0.26.

Consider C41U C64G, for which the self-cleavage was determined as 0.635.

With C49U G74C, the self-cleavage worked out at 0.374.

Regarding G38C C84U, the self-cleavage amounted to 0.158.

Consider C4U A87U, for which the self-cleavage was 0.817.

On to U46C A83C, for which the self-cleavage was 0.237.

As for U60C A87G, the self-cleavage was determined as 1.03.

For the variant G25C G40U, the self-cleavage stood at 0.0563.

G59A U65A: the self-cleavage was 0.933.

Turning to C48A U60C, the self-cleavage was found to be 0.91.

As to C18G G52C, the self-cleavage turned out to be 0.0554.

On to G40A C49G, for which the self-cleavage was 0.944.

For G29A A43C, the self-cleavage was found to be 0.0978.

Consider G28A G31A, for which the self-cleavage is 0.101.

As to C30A U65C, the self-cleavage worked out at 0.644.

Regarding C7U G55C, the self-cleavage is 0.736.

In the case of C7U G55A, the self-cleavage worked out at 0.724.

Take U20G G82A: the self-cleavage was 0.123.

In the case of C14A C30A, the self-cleavage turned out to be 0.104.

On to U72G G74C, for which the self-cleavage amounted to 0.237.

Take C44U A87G: the self-cleavage is 0.554.

With C62G C85U, the self-cleavage worked out at 0.902.

As for A16U C57U, the self-cleavage was 0.831.

As for C26U A56G, the self-cleavage was found to be 1.08.

For G39C C86U, the self-cleavage amounted to 0.208.

For the variant C13G C26G, the self-cleavage amounted to 0.0978.

As to G52A G73U, the self-cleavage worked out at 0.338.

Regarding U9G A77G, the self-cleavage was found to be 0.767.

Take C32U G67C: the self-cleavage is 0.997.

On to C24A A87G, for which the self-cleavage is 0.7.

For G34C U65A, the self-cleavage amounted to 0.138.

As to U60A C75U, the self-cleavage came to 0.253.

For G6A C61U, the self-cleavage was 0.899.

C26A C49U: the self-cleavage stood at 0.849.

Turning to G54U C57A, the self-cleavage amounted to 0.997.

Consider A8G G38A, for which the self-cleavage worked out at 0.0959.

C18U C85U: the self-cleavage is 0.582.

With C4U A56G, the self-cleavage was 0.665.

For the variant G29A G73A, the self-cleavage amounted to 0.143.

Consider G2A U23G, for which the self-cleavage was found to be 0.0886.

A8U C66A: the self-cleavage is 1.06.

C64G C86A: the self-cleavage stood at 0.946.

Turning to G53C A83U, the self-cleavage is 0.332.

Turning to C32A C44A, the self-cleavage turned out to be 0.364.

On to C36A G68C, for which the self-cleavage was found to be 0.235.

As for U9G C61U, the self-cleavage came to 1.05.

With A8C C61A, the self-cleavage was determined as 0.931.

With C22G A56G, the self-cleavage was 0.0875.

As for A42G G50U, the self-cleavage stood at 0.542.

With G1A G38A, the self-cleavage was 0.0332.

With G54A A56G, the self-cleavage amounted to 0.991.

For C4G G25U, the self-cleavage amounted to 0.109.

Turning to C22U C33U, the self-cleavage was 0.533.

For the variant G28A G34A, the self-cleavage is 0.175.

Consider G52A U79A, for which the self-cleavage came out at 0.95.

In the case of G28A G39C, the self-cleavage was 0.106.

As to A16U C26A, the self-cleavage is 1.05.

Take A45C C57G: the self-cleavage was found to be 0.851.

On to C24U A87G, for which the self-cleavage was 0.55.

As to A16G G39U, the self-cleavage turned out to be 0.582.

In the case of G17A G73U, the self-cleavage was 0.188.

As for U23C C30G, the self-cleavage turned out to be 0.0437.

Take C3A G54U: the self-cleavage amounted to 0.453.

G40U C41G: the self-cleavage came to 0.729.
